# Test results: patent US11306137B2, “Antibody binding agents that bind Acinetobactor and uses thereof” (priority 2015, dated 2022)
# Entries after “also recorded” stand apart in the source; their conditions may differ.
# Tests used:
# [1] = tested on: A. baumannii cell surface; experiment: Flow cytometry binding to A. baumannii cell surface
# Experimental: Hybridoma pre-clones were selected for subcloning based on bacterial cell surface reactivity by flow cytometry. Briefly, A. baumannii was passaged to log phase, stained with the bacterial dye SYTO BC (LifeTech #B7277), then stained with pre-clone supernatant from 96-well plates at 4° C., rinsed, and counter-stained with CF 647-conjugated goat anti-mouse IgG (Sigma-Aldrich, #SAB4600182). Control samples were stained with mouse IgG1 isotype control mAb (R&D Systems, #MAB002). Percent positivity was determined by flow cytometry.
# Hybridoma cell lines were propagated in 96-well flat-bottom plates in DMEM-20%, and supernatants were harvested from wells for initial flow cytometry screening to identify antibodies that bound to intact bacteria. In brief, A. baumannii isolates were passaged to log phase, stained with the bacterial dye SYTO BC (LifeTech #B7277), and incubated for 1 hr with undiluted supernatants collected from 96-well plates at 4° C. Cells were washed and counter-stained with a secondary antibody, CF647-conjugated goat anti-mouse IgG (Sigma-Aldrich, #SAB4600182). Control samples were stained with a mouse IgG1 isotype control MAb (R&D Systems, #MAB002) as a negative control, and mouse polyclonal HUMC1-immune serum as a positive control for bacterial binding. Hybridomas that tested positive for bacterial binding were subcloned by limiting dilution into 96-well plates to ensure clonality, expanded, and retested to confirm bacterial binding.
# A. baumannii HUMC1 [2] = experiment: Oropharyngeal aspiration pneumonia model, survival; type: in vivo, mice; conditions: for survival: oropharyngeal aspiration of HUMC1
# Experimental: To determine if C8 could treat, inhibit and/or prevent A. baumannii induced sepsis, mice were infected i.v. via the tail-vein with 2×10^7 hyper-virulent A. baumannii HUMC1 and were treated once i.v. with either protein-G purified C8 mAb (approximately 10 or 20 μg doses) or an isotype-control antibody in a saline buffer. […] In a second experiment, mice were similarly infected and the C8 MAb was administered once i.v. in saline buffer at a low (5 μg) and very low (0.5 μg) dose.
# Male C3HeB/Fe mice (Jackson Labs) between the ages of 7-10 wk were used for all experiments. All animal work was conducted following approval by the Institutional Animal Use and Care Committee at the University of Southern California, in compliance with the recommendations in the Guide for the Care and Use of Laboratory Animals of the National Institutes of Health.
# For the bloodstream infection model, mice were infected intravenously via the tail-vein with designated inocula of A. baumannii isolates. An oropharyngeal model of aspiration pneumonia that recapitulates hospital- or ventilator-associated pneumonia (VAP) relevant to ICU populations was used. In brief, mice were sedated with isoflurane, hung by their maxillary incisors, tongues held to prevent swallowing, and 50 μL of bacterial inocula was placed in the trachea to allow inoculation of the organisms into the lungs by reflexive aspiration.
# A. baumannii HUMC1 [3] = experiment: In vitro complement susceptibility (bacterial growth in mouse serum); type: cell-based; conditions: heat-inactivated or complement-active CD-1 mouse serum; FIG. 6A
# Experimental: Overnight cultures of A. baumannii were subcultured to log-phase, washed in PBS, and resuspended at 1×10^6 CFUs/mL in 3 mL HBSS containing 50% CD-1 mouse serum that had been either heat-inactivated at 57° C. for 30 minutes or not. Tubes were shaken (200 rpm) for 2 hr at 37° C. and bacterial expansion was quantified by serially diluting cultures on TSA plates and counting CFUs.
# [4] = tested on: A. baumannii HUMC1 uptake by RAW 264.7 macrophages; experiment: Opsonophagocytosis assay (macrophage uptake); type: cell-based; conditions: FIG. 6B
# Experimental: RAW 264.7 macrophages (1×10^6 per well) were grown on coverslips in 12-well plates and stimulated with 100 U/mL IFN-γ. Cells adhered to the cover glass overnight in a humidified incubator at 37° C. supplemented with 5% CO2. Cells were washed three times with HBSS and bacteria were added to wells at a ratio of 10:1, bacteria to macrophages, in the presence (or absence) of 10% fetal bovine serum (FBS), either heat-inactivated or complement-active. Plates were briefly centrifuged at 250×g to cohere the bacterial cells to the bottom of the plate and incubated at 37° for 2 hr. Macrophages were washed three times with PBS, fixed with 100% methanol, and Hema 3-stained according to the manufacturer's protocol (Fisher Scientific). To quantitate bacteria counts per macrophage, coverslips were imaged on a Zeiss Axiolmager microscope. Macrophages harboring visible adherent or internalized bacteria were counted and divided by total macrophages to determine the percentage of cells with associated bacteria. The number of bacteria associated with each macrophage was also quantitated and recorded. A minimum of 100 cells per coverslip were counted.
# A. baumannii HUMC1 [5] = experiment: Confocal immunofluorescence surface binding; conditions: FIG. 5
# Experimental: To detect surface binding of A. baumannii by purified C8 MAb, mid-log-growth A. baumannii strains were washed twice, resuspended in PBS, stained with NucBlue Reagent (Life Technologies) for 30 min at 37° C., pelleted, and washed again in PBS. Primary antibody, either C8 MAb or Isotype Control IgG1 (R&D Systems, Product #MAB002), was added to 100 μL of bacteria to a final concentration of 100 μg/mL and incubated for 30 min at 37° C. Bacteria were washed twice and resuspended in secondary antibody goat anti-mouse IgG AlexaFluor647 (Life Technologies, Product #A21235) at a final concentration of 2 μg/mL for 20 min at 37° C. After washing twice with PBS, bacteria was resuspended in 50 μL PBS, and 10 μL drops were placed on slides and mounted with cover slips and nail polish. Images were taken using a Spinning Disc Confocal Microscope (Zeiss Axiolmager).
# A. baumannii HUMC1 [6] = experiment: Immunogold transmission electron microscopy; type: binding; conditions: 40,000× magnification
# Experimental: Mid-log-growth A. baumannii cultures were washed twice incubated with primary antibody (200 μg/mL) at room temperature for 30 min, washed three times in PBS, and resuspended in 50 μL PBS. Goat anti-mouse IgG 20 nm Gold Conjugated (TedPella Inc.) was added to each tube at a final concentration of 0.8 μg/mL and incubated at room temperature for 30 min. Bacteria were washed, pelleted, and resuspended in 500 μL of half-strength Karnovsky's Fixative (2% paraformaldehyde and 2.5% gluteraldehyde in 0.1M phosphate buffer) for 2 hours at room temperature. Following incubation, the pellet was dislodged from the bottom of the tube using a bent stick and allowed to sit in fixative overnight. After overnight fixation, fixative was carefully aspirated off and 1 mL of PBS was carefully added to the tube in order to prevent agitation of the pellet. The pellet was then post-fixed in 1% Osmium Tetroxide for 1 hour and stained with 1% Uranyl Acetate overnight. The pellet was then put in 15% BSA for 2 hours and subsequently subjected to another treatment with the half-strength Karnovsky's Fixative to harden. Pellets were washed in water, dehydrated, embedded in Epon, sectioned, and placed on copper grids. Electron Micrographs were taken on a JEOL JEM-2100 Microscope operating at 80 kV.
molecule,measurement,setting,value
"C8: mouse IgG1-kappa monoclonal antibody from hybridoma 9.1C8 (ATCC PTA-122177); light chain SEQ ID NO:2, heavy chain SEQ ID NO:3 (antibody, listed as Mus musculus, V domains shown) VH: EVQLQQSGPELVKPGASVKISCKASGYSFTGYTMNWVKQSHGKSLEWIGRINPYNGDSFYNQKFKGKATLTVDKSSNIAHMEFLSLTSEDSAVYYCGRSGDGPWFAYWGQGTLVTVSA VL: LPLSLPVSLGDQASISCRSSQSIVHNNGNTYLEWYLQKPGQSPKLLIYKVSNRFSGVPDRFSGSGSGTDFTLKISRVEAEDLGVYYCFQGSHVPLTFGAGTKLEIKGSRS",binding to the cell surface of A. baumannii by flow cytometry,[1]; HUMC1 strain,specifically bound; also recorded: to the same extent as polyclonal immune serum
same,surface binding to other clinical isolates by flow cytometry,"[1]; HUMC6, C14, ATCC 17978, AB0071, UH7007 (Table 7)",representative of 5 other strains; also recorded: Surface binding was confirmed to 4 other diverse clinical isolates
same,"survival, delayed treatment","A. baumannii HUMC1 [2]; lung model, therapy administered 4 hr post-infection",fully protective
same,survival,"A. baumannii HUMC1 [2]; 5 μg i.v., FIG. 4 / FIG. 9A",nearly fully protective; also recorded: markedly improved survival
same,survival,"A. baumannii HUMC1 [2]; 50 μg i.p., FIG. 9B",fully protective
same,impact on bacterial growth in vitro,A. baumannii HUMC1 [3],minimal impact
same,macrophage uptake of A. baumannii,"[4]; C8 5 μg/mL, heat-inactivated or complement-active serum",markedly increased; also recorded: markedly improved macrophage uptake
same,macrophage uptake of A. baumannii with active complement,[4]; C8 MAb plus normal serum with active complement,highest uptake; also recorded: enhancement was greatest with complement
same,surface binding by immunofluorescent staining,A. baumannii HUMC1 [5],confirmed diffuse surface binding
same,physical binding site on the bacterial surface by electron microscopy,A. baumannii HUMC1 [6],bound to the pili on the bacterial surface; also recorded: binding to the pili
